For assay [1], the target named is T1, human IL-2 receptor (IL-2Rα/IL-2Rβ/γc) (human, UniProt P01589 22-272; P14784 27-551; P31785 23-369).
T1 sequence 1: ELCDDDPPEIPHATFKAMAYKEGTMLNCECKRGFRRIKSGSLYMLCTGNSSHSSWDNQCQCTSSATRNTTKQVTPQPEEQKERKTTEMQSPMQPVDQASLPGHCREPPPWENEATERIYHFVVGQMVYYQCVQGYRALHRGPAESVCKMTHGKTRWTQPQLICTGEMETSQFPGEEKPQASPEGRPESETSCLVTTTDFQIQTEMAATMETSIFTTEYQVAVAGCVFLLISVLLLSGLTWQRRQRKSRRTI
T1 sequence 2: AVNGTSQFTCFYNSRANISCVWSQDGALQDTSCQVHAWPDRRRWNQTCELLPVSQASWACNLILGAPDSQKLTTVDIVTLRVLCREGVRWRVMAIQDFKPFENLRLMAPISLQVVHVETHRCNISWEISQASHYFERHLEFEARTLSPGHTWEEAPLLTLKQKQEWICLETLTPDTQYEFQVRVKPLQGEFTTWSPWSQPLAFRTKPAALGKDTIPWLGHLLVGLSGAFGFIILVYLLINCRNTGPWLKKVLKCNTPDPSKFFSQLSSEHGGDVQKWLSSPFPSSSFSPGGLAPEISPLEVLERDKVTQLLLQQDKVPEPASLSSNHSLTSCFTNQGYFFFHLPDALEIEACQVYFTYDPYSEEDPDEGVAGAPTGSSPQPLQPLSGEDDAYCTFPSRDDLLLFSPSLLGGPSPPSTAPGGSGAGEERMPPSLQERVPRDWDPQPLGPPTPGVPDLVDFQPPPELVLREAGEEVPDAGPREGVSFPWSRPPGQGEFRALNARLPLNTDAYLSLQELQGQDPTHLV
T1 sequence 3: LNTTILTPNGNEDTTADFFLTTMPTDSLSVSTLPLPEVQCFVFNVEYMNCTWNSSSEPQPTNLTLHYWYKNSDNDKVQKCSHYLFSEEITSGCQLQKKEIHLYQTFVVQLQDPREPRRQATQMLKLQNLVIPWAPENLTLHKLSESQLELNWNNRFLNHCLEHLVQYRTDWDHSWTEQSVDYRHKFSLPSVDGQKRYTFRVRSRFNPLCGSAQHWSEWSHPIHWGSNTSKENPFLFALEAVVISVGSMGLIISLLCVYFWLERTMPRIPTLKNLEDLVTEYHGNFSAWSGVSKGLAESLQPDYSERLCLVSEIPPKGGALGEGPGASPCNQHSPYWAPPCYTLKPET
As to the kind of experiment: cell-based or functional assay.

Assay [2] concerns the target T1, human IL-2 receptor (IL-2Rα/IL-2Rβ/γc). As to the kind of experiment: cell-based or functional assay. This is another data set of the same source.

Where two headings read alike, the source gives them in different places. A value given as a limit tells only on which side of the number the result lay.

B1: TsVHH-48 (other)
chain 1: QVQLVESGGGLVQPGGSLRLSCATSGFTFRNNFMSWVRQAPGKGLEWVSTISYGGESTTYAESVKGRFTISRDNAKNTLYLQMNNLKPEDTAVYYCAKATSYDSIRSGSRGQGTQVTVSSDKTHTCPPCPAPEAAGGPSVFLFPPKPKDTLMISRTPEVTCVVVDVSHEDPEVKFNWYVDGVEVHNAKTKPREEQYNSTYRVVSVLTVLHQDWLNGKEYKCKVSNKALGAPIEKTISKAKGQPREPQVYTLPPSRDELTKNQVSLTCLVKGFYPSDIAVEWESNGQPENNYKTTPPVLDSDGSFFLYSRLTVDKSRWQQGNVFSCSVMHEALHNHYTQKSLSLSPGK
chain 2: QVQLVESGGGLVQAGGSLTLSCAAPGRTFGTDVVGWFRQAPGKEREFVASISRSGDGIYYDDSVKGRFTISRNNAWNTVNLQMNSLKVEDTAVYYCAAGDGWSTYDYWGQGTQVTVSSGGGGSGGGGSGGGGSGSEVQLVESGGGLVQTGGSLRLSCAASGGTFSRDAMAWFRQVPGKEREFVALISWSGATTNYADSVKGRFAISRDNGKNTVYLQMNRLKPADTAIYYCAADRRPMGSRSYFEPTEYDDWGQGTQVTVSSGGGGSGGGGSGGGGSTVSSDKTHTCPPCPAPEAAGGPSVFLFPPKPKDTLMISRTPEVTCVVVDVSHEDPEVKFNWYVDGVEVHNAKTKPREEQYNSTYRVVSVLTVLHQDWLNGKEYKCKVSNKALGAPIEKTISKAKGQPREPQVYTLPPSRDELTKNQVSLTCLVKGFYPSDIAVEWESNGQPENNYKTTPPVLDSDGSFLLYSKLTVDKSRWQQGNVFSCSVMHEALHNHYTQKSLSLSPGK
Turning to B1, in assay [1], the “EC50 (nM) pSTAT5, NK, human PBMCs” value was found to be 2.59 nM; the “EC50 (nM) pSTAT5, Treg, human PBMCs” value was 0.0118 nM; the “Fold Max signal (% pSTAT5+) Treg/NK” value worked out at 5 fold; the “Max signal (% pSTAT5+), NK” value is 20 % pSTAT5+. Also, in assay [1], the “Max signal (% pSTAT5+), Treg” value was found to be 95 % pSTAT5+ and the “fold EC50 NK/Treg” value amounted to 220 fold. Further, in assay [2], the “EC50 (nM) pSTAT5, NK, human PBMCs” value is 1.14 nM; the “EC50 (nM) pSTAT5, Treg, human PBMCs” value worked out at 0.00195 nM; the “Fold Max signal (% pSTAT5+) Treg/NK” value turned out to be 8 fold; the “Max signal (% pSTAT5+), NK” value was found to be 8.26 % pSTAT5+. Moreover, in assay [2], the “Max signal (% pSTAT5+), Treg” value stood at 64.1 % pSTAT5+ and the “fold EC50 NK/Treg” value was found to be 583 fold.

B2: DC00092 (other)
chain 1: QLQLVESGGGLVQAGDSLRLSCAASGFNFGWHAMGWFRQAPGKEREFVATITWTGRDTYYADSVRGRFTISKDNAKDTLFLQMNSLRPDDTGVYYCAKARERATWAYSEDDCDYWGQGTQVTVSSDKTHTCPPCPAPEAAGGPSVFLFPPKPKDTLMISRTPEVTCVVVDVSHEDPEVKFNWYVDGVEVHNAKTKPREEQYNSTYRVVSVLTVLHQDWLNGKEYKCKVSNKALGAPIEKTISKAKGQPREPQVYTLPPSRDELTKNQVSLTCLVKGFYPSDIAVEWESNGQPENNYKTTPPVLDSDGSFLLYSKLTVDKSRWQQGNVFSCSVMHEALHNHYTQKSLSLSPGK
chain 2: QVQLVESGGGLVQPGGSLRLSCATSGFTFRNNFMSWVRQAPGKGLEWVSTISYGGESTTYAESVKGRFTISRDNAKNTLYLQMNNLKPEDTAVYYCAKATSYDSIRSGSRGQGTQVTVSSGGGGSGGGGSGGGGSEVQLVESGGGLVQTGGSLRLSCAASGGTFSRDAMAWFRQVPGKEREFVALISWSGATTNYADSVKGRFAISRDNGKNTVYLQMNRLKPADTAIYYCAADRRPMGSRSYFEPTEYDDWGQGTQVTVSSGGGGSGGGGSGGGGSQVQLVESGGGLVQAGGSLTLSCAAPGRTFGTDVVGWFRQAPGKEREFVASISRSGDGIYYDDSVKGRFTISRNNAWNTVNLQMNSLKVEDTAVYYCAAGDGWSTYDYWGQGTQVTVSSGGGGSGGGGSGGGGSDKTHTCPPCPAPEAAGGPSVFLFPPKPKDTLMISRTPEVTCVVVDVSHEDPEVKFNWYVDGVEVHNAKTKPREEQYNSTYRVVSVLTVLHQDWLNGKEYKCKVSNKALGAPIEKTISKAKGQPREPQVYTLPPSRDELTKNQVSLTCLVKGFYPSDIAVEWESNGQPENNYKTTPPVLDSDGSFFLYSRLTVDKSRWQQGNVFSCSVMHEALHNHYTQKSLSLSPGK
Consider B2, for which, in assay [2], the “EC50 (nM) pSTAT5, Treg, human PBMCs” value is under 0.1 pM; the “Fold Max signal (% pSTAT5+) Treg/NK” value was 6 fold; the “Max signal (% pSTAT5+), NK” value amounted to 4.82 % pSTAT5+; the “Max signal (% pSTAT5+), Treg” value worked out at 26.7 % pSTAT5+.

B3: DC00093 (other)
chain 1: QLQLVESGGGLVQAGDSLRLSCAASGFNFGWHAMGWFRQAPGKEREFVATITWTGRDTYYADSVRGRFTISKDNAKDTLFLQMNSLRPDDTGVYYCAKARERATWAYSEDDCDYWGQGTQVTVSSDKTHTCPPCPAPEAAGGPSVFLFPPKPKDTLMISRTPEVTCVVVDVSHEDPEVKFNWYVDGVEVHNAKTKPREEQYNSTYRVVSVLTVLHQDWLNGKEYKCKVSNKALGAPIEKTISKAKGQPREPQVYTLPPSRDELTKNQVSLTCLVKGFYPSDIAVEWESNGQPENNYKTTPPVLDSDGSFLLYSKLTVDKSRWQQGNVFSCSVMHEALHNHYTQKSLSLSPGK
chain 2: QVQLVESGGGLVQAGGSLTLSCAAPGRTFGTDVVGWFRQAPGKEREFVASISRSGDGIYYDDSVKGRFTISRNNAWNTVNLQMNSLKVEDTAVYYCAAGDGWSTYDYWGQGTQVTVSSGGGGSGGGGSGGGGSEVQLVESGGGLVQTGGSLRLSCAASGGTFSRDAMAWFRQVPGKEREFVALISWSGATTNYADSVKGRFAISRDNGKNTVYLQMNRLKPADTAIYYCAADRRPMGSRSYFEPTEYDDWGQGTQVTVSSGGGGSGGGGSGGGGSQVQLVESGGGLVQPGGSLRLSCATSGFTFRNNFMSWVRQAPGKGLEWVSTISYGGESTTYAESVKGRFTISRDNAKNTLYLQMNNLKPEDTAVYYCAKATSYDSIRSGSRGQGTQVTVSSDKTHTCPPCPAPEAAGGPSVFLFPPKPKDTLMISRTPEVTCVVVDVSHEDPEVKFNWYVDGVEVHNAKTKPREEQYNSTYRVVSVLTVLHQDWLNGKEYKCKVSNKALGAPIEKTISKAKGQPREPQVYTLPPSRDELTKNQVSLTCLVKGFYPSDIAVEWESNGQPENNYKTTPPVLDSDGSFFLYSRLTVDKSRWQQGNVFSCSVMHEALHNHYTQKSLSLSPGK
As to B3, in assay [2], the “EC50 (nM) pSTAT5, NK, human PBMCs” value amounted to 0.0752 nM; the “EC50 (nM) pSTAT5, Treg, human PBMCs” value is 0.735 nM; the “Fold Max signal (% pSTAT5+) Treg/NK” value worked out at 6 fold; the “Max signal (% pSTAT5+), NK” value stood at 11.4 % pSTAT5+. In addition, in assay [2], the “Max signal (% pSTAT5+), Treg” value was 66.7 % pSTAT5+.

B4: DC00060 (other)
chain 1: QVQLVESGGGLVQPGGSLRLSCATSGFTFRNNFMSWVRQAPGKGLEWVSTISYGGESTTYAESVKGRFTISRDNAKNTLYLQMNNLKPEDTAVYYCAKATSYDSIRSGSRGQGTQVTVSSGGGGSGGGGSGGGGSEVQLVESGGGLVQTGGSLRLSCAASGGTFSRDAMAWFRQVPGKEREFVALISWSGATTNYADSVKGRFAISRDNGKNTVYLQMNRLKPADTAIYYCAADRRPMGSRSYFEPTEYDDWGQGTQVTVSSGGGGSGGGGSGGGGSDKTHTCPPCPAPEAAGGPSVFLFPPKPKDTLMISRTPEVTCVVVDVSHEDPEVKFNWYVDGVEVHNAKTKPREEQYNSTYRVVSVLTVLHQDWLNGKEYKCKVSNKALGAPIEKTISKAKGQPREPQVYTLPPSRDELTKNQVSLTCLVKGFYPSDIAVEWESNGQPENNYKTTPPVLDSDGSFLLYSKLTVDKSRWQQGNVFSCSVMHEALHNHYTQKSLSLSPGK
chain 2: QVQLVESGGGLVQPGGSLRLSCATSGFTFRNNFMSWVRQAPGKGLEWVSTISYGGESTTYAESVKGRFTISRDNAKNTLYLQMNNLKPEDTAVYYCAKATSYDSIRSGSRGQGTQVTVSSGGGGSGGGGSGGGGSQVQLVESGGGLVQAGGSLTLSCAAPGRTFGTDVVGWFRQAPGKEREFVASISRSGDGIYYDDSVKGRFTISRNNAWNTVNLQMNSLKVEDTAVYYCAAGDGWSTYDYWGQGTQVTVSSGGGGSGGGGSGGGGSDKTHTCPPCPAPEAAGGPSVFLFPPKPKDTLMISRTPEVTCVVVDVSHEDPEVKFNWYVDGVEVHNAKTKPREEQYNSTYRVVSVLTVLHQDWLNGKEYKCKVSNKALGAPIEKTISKAKGQPREPQVYTLPPSRDELTKNQVSLTCLVKGFYPSDIAVEWESNGQPENNYKTTPPVLDSDGSFFLYSRLTVDKSRWQQGNVFSCSVMHEALHNHYTQKSLSLSPGK
Take B4: in assay [1], the “EC50 (nM) pSTAT5, NK, human PBMCs” value was determined as 0.645 nM; the “EC50 (nM) pSTAT5, Treg, human PBMCs” value amounted to 0.00334 nM; the “Fold Max signal (% pSTAT5+) Treg/NK” value worked out at 7 fold; the “Max signal (% pSTAT5+), NK” value was 8 % pSTAT5+. Also, in assay [1], the “Max signal (% pSTAT5+), Treg” value was 56 % pSTAT5+ and the “fold EC50 NK/Treg” value turned out to be 193 fold. Besides, in assay [2], the “EC50 (nM) pSTAT5, NK, human PBMCs” value was 0.769 nM; the “EC50 (nM) pSTAT5, Treg, human PBMCs” value was 0.00215 nM; the “Fold Max signal (% pSTAT5+) Treg/NK” value came out at 8 fold; the “Max signal (% pSTAT5+), NK” value worked out at 2.49 % pSTAT5+. Besides, in assay [2], the “Max signal (% pSTAT5+), Treg” value came out at 19.8 % pSTAT5+ and the “fold EC50 NK/Treg” value came out at 358 fold.

The values are drawn from patent US20240409645A1 (DUALYX, published 2024).
